± gives the standard deviation of the averaged measurements.

For the series, the system named is Saccharomyces cerevisiae. The series is described as follows: protein stability index of tFT-peptide fusion (C-terminal peptide) (PSI (0-1 scale)); higher = more stable (slower turnover). Particulars: temperature: 30 C. As for the experimental part: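 MPS profiling in S. cerevisiae of the yeast C-terminome library: the last 12 aa of each annotated ORF are fused to the C-terminus of a sfGFP-mCherry timer, after a GGGS linker. Cells are FACS-sorted into 8 mCherry/sfGFP bins and deep-sequenced. PSI runs from 0 (unstable) to 1 (stable); wild type and das1Δ backgrounds, two technical replicates each.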

Where [1] appears, read: genetic background: das1 deletion.

Turning to MDPMSPLNKDVS [YMR196W C-terminal 12 aa], the protein stability index by setting is: under setting [1], 0.692 ± 0.0081; (genetic background: wild type) 0.73 ± 0.05.
The corresponding values for MFTSDKKTEQTT [URC2 C-terminal 12 aa] are 0.708 ± 0.0052 and 0.695 ± 0.011.
Turning to MGSSRRTSLDFF [YBR071W C-terminal 12 aa], the protein stability index worked out at 0.7242 ± 0.0015 under setting [1] and 0.693 ± 0.025 (genetic background: wild type).
The corresponding values for MIDELDYNINFA [UGA3 C-terminal 12 aa] are 0.7 ± 0.013 and 0.791 ± 0.076.
Taken in the same sequence, the figures for MILKVSLECAVS [YDL009C C-terminal 12 aa] were 0.468 ± 0.0021 and 0.481 ± 0.016.
Taken in the same sequence, the figures for MKKPRKSKKAAN [KRE33 C-terminal 12 aa] were 0.716 ± 0.018 and 0.714 ± 0.039.
Turning to MKTRLERERGLV [PTC4 C-terminal 12 aa], the protein stability index is 0.694 ± 0.027 under setting [1] and 0.638 ± 0.019 (genetic background: wild type).
Regarding MMAVDTDVDMDA [YPL071C C-terminal 12 aa], the protein stability index is 0.668 ± 0.012 under setting [1] and 0.673 ± 0.014 (genetic background: wild type).
For MMTRENMDMGER [RRP3 C-terminal 12 aa], the protein stability index is 0.669 ± 0.044 under setting [1] and 0.649 ± 0.027 (genetic background: wild type).
Taken in the same sequence, the figures for MNAAENEVKKEK [SUR2 C-terminal 12 aa] were 0.688 ± 0.016 and 0.669 ± 0.027.
The corresponding values for MNGIPREAFVQF [MEX67 C-terminal 12 aa] are 0.68 ± 0.0078 and 0.701 ± 0.022.
Taken in the same sequence, the figures for MSNSNSVCCTLM [STE18 C-terminal 12 aa] were 0.736 ± 0.01 and 0.7027 ± 0.0034.
Turning to MSSTDWVTKPTY [AFG1 C-terminal 12 aa], the protein stability index is, setting by setting: under setting [1], 0.6977 ± 0.0026; (genetic background: wild type) 0.678 ± 0.017.
Regarding MTKISILKPFLH [CDC6 C-terminal 12 aa], the protein stability index worked out at 0.711 ± 0.0076 under setting [1] and 0.6156 ± 0.0052 (genetic background: wild type).
With MYSSKDNPASPK [TAF1 C-terminal 12 aa], the protein stability index by setting is: under setting [1], 0.693 ± 0.021; (genetic background: wild type) 0.674 ± 0.017.
For the sequence NAEKAAGQKKED [YLL053C C-terminal 12 aa], the protein stability index worked out at 0.695 ± 0.034 under setting [1] and 0.658 ± 0.018 (genetic background: wild type).
Regarding NAIEEELAKMKL [THR4 C-terminal 12 aa], the protein stability index worked out at 0.6922 ± 0.0025 under setting [1] and 0.692 ± 0.035 (genetic background: wild type).
Taken in the same sequence, the figures for NDTIKLNQSIYS [ASK10 C-terminal 12 aa] were 0.701 ± 0.02 and 0.7048 ± 0.0015.
The corresponding values for NEALVKTTKQKL [LPX1 C-terminal 12 aa] are 0.703 ± 0.013 and 0.704 ± 0.018.
Taken in the same sequence, the figures for NEEMAEISNPFR [FEN2 C-terminal 12 aa] were 0.699 ± 0.019 and 0.711 ± 0.026.
Consider NEEMIRKLKAAK [JID1 C-terminal 12 aa], for which the protein stability index amounted to 0.674 ± 0.015 under setting [1] and 0.662 ± 0.021 (genetic background: wild type).
The corresponding values for NEPTNSDIVELD [UBA2 C-terminal 12 aa] are 0.693 ± 0.023 and 0.676 ± 0.019.
The corresponding values for NFKNSSAKSKRS [PKH2 C-terminal 12 aa] are 0.682 ± 0.014 and 0.695 ± 0.0083.
Taken in the same sequence, the figures for NFLNLLSPLPSV [TOM7 C-terminal 12 aa] were 0.72262 ± 0.00027 and 0.6951 ± 0.0031.
As to “NGTAKSAQSTTV [YAR019W-A C-terminal 12 aa]”, the protein stability index runs as follows: under setting [1], 0.67513 ± 0.00026; (genetic background: wild type) 0.729 ± 0.016.
For NGWHELALPQSR [SWM1 C-terminal 12 aa], the protein stability index by setting is: under setting [1], 0.74 ± 0.0028; (genetic background: wild type) 0.705 ± 0.021.
Take NIATIASERSRP [YPL102C C-terminal 12 aa]: the protein stability index was found to be 0.723 ± 0.046 under setting [1] and 0.683 ± 0.007 (genetic background: wild type).
Taken in the same sequence, the figures for NIIGLLSNDEEH [CBP2 C-terminal 12 aa] were 0.6944 ± 0.0063 and 0.6869 ± 0.0018.
The corresponding values for NKDTMQLFRAYL [CIN2 C-terminal 12 aa] are 0.7695 ± 0.0014 and 0.834 ± 0.04.
The corresponding values for NKPKGPLRKRRT [TWF1 C-terminal 12 aa] are 0.7 ± 0.017 and 0.672 ± 0.011.
Sequence NKREFIDSLRPH [AIM20 C-terminal 12 aa] registered a protein stability index under setting [1] of 0.71 ± 0.013 and a protein stability index (genetic background: wild type) of 0.6774 ± 0.0032.
Taken in the same sequence, the figures for NLDGQIHYLQRL [GAL7 C-terminal 12 aa] were 0.706 ± 0.012 and 0.761 ± 0.091.
Taken in the same sequence, the figures for NMVNFESEKVNR [YVH1 C-terminal 12 aa] were 0.706 ± 0.02 and 0.662 ± 0.012.
Taken in the same sequence, the figures for NNDILQNKKLHQ [KIP1 C-terminal 12 aa] were 0.686 ± 0.034 and 0.712 ± 0.053.
Turning to NNLHLPGNTGFF [PDC2 C-terminal 12 aa], the protein stability index amounted to 0.728 ± 0.0081 under setting [1] and 0.712 ± 0.043 (genetic background: wild type).
In the case of NPEATTKPKPRL [PTC5 C-terminal 12 aa], the protein stability index runs as follows: under setting [1], 0.752 ± 0.0099; (genetic background: wild type) 0.81 ± 0.049.
Taken in the same sequence, the figures for NPNSLPLQPIAN [MSC2 C-terminal 12 aa] were 0.704 ± 0.018 and 0.691 ± 0.015.
As for NRVPKWMKLSKK [UBX4 C-terminal 12 aa], the protein stability index worked out at 0.676 ± 0.012 under setting [1] and 0.679 ± 0.027 (genetic background: wild type).
Taken in the same sequence, the figures for NRVVLVDHNSSS [IRS4 C-terminal 12 aa] were 0.72 ± 0.024 and 0.727 ± 0.069.
In the case of NSDTIARIATVM [DAS1 C-terminal 12 aa], the protein stability index runs as follows: under setting [1], 0.685 ± 0.011; (genetic background: wild type) 0.595 ± 0.0036.
Consider NSIISLEALDAI [SMX2 C-terminal 12 aa], for which the protein stability index reads like this: under setting [1], 0.72 ± 0.039; (genetic background: wild type) 0.708 ± 0.022.
Taken in the same sequence, the figures for NSNELEYAPTAN [LIA1 C-terminal 12 aa] were 0.686 ± 0.022 and 0.7 ± 0.11.
Consider NTESSCGFFQWV [APN2 C-terminal 12 aa], for which the protein stability index runs as follows: under setting [1], 0.72737 ± 0.00023; (genetic background: wild type) 0.737 ± 0.02.
Taken in the same sequence, the figures for NTFRKIKGDKKN [MDJ1 C-terminal 12 aa] were 0.687 ± 0.068 and 0.758 ± 0.0081.
Taken in the same sequence, the figures for NTFVLNMSRFII [YDL068W C-terminal 12 aa] were 0.6739 ± 0.003 and 0.365 ± 0.079.
Taken in the same sequence, the figures for “NTHDLHLRPGTY [YBL005W-A C-terminal 12 aa]” were 0.6794 ± 0.00083 and 0.708 ± 0.013.
For the sequence NTTHYNASLLRQ [PHO5 C-terminal 12 aa], the protein stability index was 0.688 ± 0.022 under setting [1] and 0.673 ± 0.017 (genetic background: wild type).
The corresponding values for NTVELLNIPLTS [YLR345W C-terminal 12 aa] are 0.6555 ± 0.0055 and 0.649 ± 0.0043.
Taken in the same sequence, the figures for PAAIKQAIASNV [TRX2 C-terminal 12 aa] were 0.659 ± 0.0072 and 0.657 ± 0.0098.
Taken in the same sequence, the figures for PAAKKVVELTQN [LSC2 C-terminal 12 aa] were 0.685 ± 0.012 and 0.58 ± 0.019.
In turn, PDCTVCSNSNSN [UBA3 C-terminal 12 aa] had a protein stability index under setting [1] of 0.705 ± 0.0088 and a protein stability index (genetic background: wild type) of 0.677 ± 0.047.
Taken in the same sequence, the figures for PEGEAPEAFSMK [SEC14 C-terminal 12 aa] were 0.7068 ± 0.0023 and 0.684 ± 0.036.
On to PEGGDGPKYTLT [CIR2 C-terminal 12 aa], for which the protein stability index by setting is: under setting [1], 0.688 ± 0.018; (genetic background: wild type) 0.721 ± 0.016.
The corresponding values for PEKWSASLKKFK [THI6 C-terminal 12 aa] are 0.731 ± 0.017 and 0.6854 ± 0.0031.
The corresponding values for PEMDKEKKKFYL [RPF1 C-terminal 12 aa] are 0.724 ± 0.04 and 0.708 ± 0.06.
The corresponding values for PEVIDTRKDNSN [COX11 C-terminal 12 aa] are 0.687 ± 0.012 and 0.696 ± 0.022.
As for PFGKKKTGLFSL [PRM10 C-terminal 12 aa], the protein stability index is, setting by setting: under setting [1], 0.723 ± 0.036; (genetic background: wild type) 0.717 ± 0.03.
Taken in the same sequence, the figures for PGDTLIEVIDLT [WSS1 C-terminal 12 aa] were 0.692 ± 0.025 and 0.7105 ± 0.00019.
Taken in the same sequence, the figures for “PGLRRQHTRNFL [YMR294W-A C-terminal 12 aa]” were 0.697 ± 0.01 and 0.737 ± 0.042.
Taken in the same sequence, the figures for PHVKLFETTSGL [IRC5 C-terminal 12 aa] were 0.718 ± 0.021 and 0.712 ± 0.014.
Regarding PKGDIEASIAEE [MPH3 C-terminal 12 aa], the protein stability index under setting [1] stood at 0.6877 ± 0.00033 and the protein stability index (genetic background: wild type) is 0.677 ± 0.016.
Taken in the same sequence, the figures for PKWCSTMCSTAT [YDR445C C-terminal 12 aa] were 0.69 ± 0.03 and 0.743 ± 0.049.
Taken in the same sequence, the figures for “PLCYWHYSADTY [YIL105W-A C-terminal 12 aa]” were 0.7217 ± 0.0058 and 0.808 ± 0.039.
Taken in the same sequence, the figures for PLITPSGFRSSL [YNR025C C-terminal 12 aa] were 0.707 ± 0.0084 and 0.715 ± 0.025.
For PNLSRANFTRNK [RSA1 C-terminal 12 aa], the protein stability index is 0.695 ± 0.019 under setting [1] and 0.699 ± 0.014 (genetic background: wild type).
Taken in the same sequence, the figures for PPFDFRLLFLLV [YGL165C C-terminal 12 aa] were 0.542 ± 0.033 and 0.269 ± 0.0091.
The corresponding values for PTVTRKTPDYFL [PPH22 C-terminal 12 aa] are 0.696 ± 0.0091 and 0.718 ± 0.089.
